Data published in US20030138840A1.

Key:
[1] = target: Recombinant human CPP32 protein with a C-terminal 6His tag, (p17p12)2 tetramer (human) (UniProt P42574); assay: cell-based or functional assay
[2] = target: CPP32 P12 subunit + Leu + Glu + 6 His (human) (UniProt P42574); assay: analysis of the purified protein (SDS-PAGE, RP-HPLC, MALDI-TOF MS, N-terminal sequence and amino acid analysis)

enzyme inhibited (CPP32 protease activity) [1] [%] | molar ratio [2] [mol/mol] | Molecule
99.9 |  | Ac-Asp-Val-Ala-Asp-fluoromethylketone (peptide)
 | 1 | CPP32 P17 subunit (enzyme, human, UniProt P42574 29-175, looked up) SGISLDNSYKMDYPEMGLCIIINNKNFHKSTGMTSRSGTDVDAANLRETFRNLKYEVRNKNDLTREEIVELMRDVSKEDHSKRSSFVCVLLSHGEEGIIFGTNGPVDLKKITNFFRGDRCRSLTGKPKLFIIQACRGTELDCGIETD
